We go through 16 molecules from US20200093909A1 (INSTITUTE FOR RESEARCH IN BIOMEDICINE, published 2020).

Experiment [1] concerns the target T1, CSP C-terminal peptide 282-383 (Plasmodium falciparum).
T1 construct: Coated at 1 ug/ml in ELISA; also called C-terminus of CSP
The experiment in a line: ELISA, C-terminal peptide 282-383 coated at 1 ug/ml.

The target in a further experiment is T2, 22-110-peptide (Plasmodium falciparum).
T2 construct: N-terminal CSP peptide coated at 1 ug/mL in ELISA
T2 peptide: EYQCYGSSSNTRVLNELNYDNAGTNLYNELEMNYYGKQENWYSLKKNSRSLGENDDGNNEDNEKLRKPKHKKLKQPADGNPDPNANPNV
The experiment in a line: ELISA, peptide coated, titrated antibody.

The next experiment addresses T3, NANP-peptide (Plasmodium falciparum).
T3 construct: CSP repeat peptide coated at 2 ug/mL in ELISA; also called NANP repeat region peptide
T3 peptide: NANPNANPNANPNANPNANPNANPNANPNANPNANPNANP
The experiment in a line: ELISA, peptide coated, titrated antibody.

Another experiment concerns the target T4, NPDP-peptide (Plasmodium falciparum).
T4 peptide: KQPADGNPDPNANPNKNN
Nature of the experiment: ELISA, peptide coated, titrated antibody.

The target in experiment [2] is T1, CSP C-terminal peptide 282-383. Nature of the experiment: ELISA, peptide coated at 1 ug/ml, B cell supernatants from 1/3 to 1/648 dilution.

B1: MGG1 (antibody, V domains shown)
VH: EVQLVESGGGVVRPGGSLRLSCAASGFTFDDYAMSWVRQAPGKGLEWVSGINWNGGSTGYADSVKGRFTISRDNAKNSLYLQMNSLRAEDTALYHCARLGRAAREYYYYYMDVWGKGTTVTVSS
VL: QSVLTQPPSVSAAPGQKVTISCSGSSSNIGNNYVSWYQQLPGTAPKLLIYDNNKRPSGIPDRFSGSKSGTSATLGITGLQTGDEADYYCGTWDSSLSAGVFGGGTKLTVLG
On to B1, for which the binding result in experiment [1] was “no binding”; with 22-110-peptide, “binds”.

B2: MGG8 (antibody, V domains shown)
VH: EVQLVESGGGLVQPGGSLKLSCAASGFMISGSVLHWVRQASGKGLEWLGRIRDKANNEATAYAASVKGRFTISRDDSKDTTYLQMNSLRIEDTAVYYCTRGIIVGDTWHFDPWGQGTLVTVSS
VL: DIVMTQTPLSLSVTPGQTASISCKSSESLLRSDGKTYLYWYLQKPGQSPQLLMYEVSKRFSGVPDRFSGSGSGTDFTLKISRVETDDVGIYYCMQSIQLVTFGQGTKVEIK
Take B2: the binding result in experiment [1] was “no binding”; with NANP-peptide, “binds”; with NPDP-peptide it was “binds”; with 22-110-peptide it was “binds”.

B3: MGH2 (antibody, V domains shown)
VH: QVQLVESGGGVVQPGGSLRLSCTASGFSFSSYAMHWVRQAPGKGLEWVAYTRYDGSNKFYLDSVQGRFTISRDNSKNTLYLEMDSLRLEDTAVYFCAKVGDGTVAGTIDYWGQGTLVTVSS
VL: YIVMTQSPLSLPVTLGQPASISCRSSQSLVYSDGNTYLNWYQQRPGQSPRRLIYKVSNRDSGVPDRFSGSGSGTDFTLKISRVEAEDVGVYYCMQGTHWWTFGQGTKVEIK
On to B3, for which, in experiment [1], the binding result was “no binding”. Also, the EC50 with NPDP-peptide is under 0.1 µg/mL.

B4: MGU12 (antibody, V domains shown)
VH: QVQLVESGGGVVQPGRSLRLSCAASGFSFSSYGMHWVRQAPGKGPEWVAVIWHDGSYSYYADSVRGRFTISRDNSKNTLYLQMNSLRPEDTGMYHCVKVEDYVRGSSHGGAFHIWGQGTMVTVSS
VL: DIQMTQSPSTLSASVGDRVTITCRASQTINNWLAWYQWKPGKAPELLIYKASSLESGVPSRFSGSGSGTEFTLTISSLQPDDFATYYCQQYSSYWTFGQGTKVDIK
Turning to B4, the binding result in experiment [1] is listed as “no binding”. In addition, the EC50 in the experiment with NPDP-peptide is under 0.1 µg/mL.

B5: MGH3 (antibody, V domains shown)
VH: EVQLVESGGGLVKPGGSLRLSCAASGFTFSSYTMNWVRQAPGKGLEWVSSISSSGSYIYYADSVKGRCTISRDNAKNSLDLQMNSLRAEDAAVYYCARNVLDSSGYPTYFDYWGQGTLVTVSS
VL: DIVMTQSPLSLPVTPGEPASISCRSSQSLLYSNGYNYLDWYVQKPGQSPRLLIYLGSNRASGVPDRFSGSGSGTDFTLRISRVEAEDVGFYYCMQAVQTPLTFGGGTKVEIK
Regarding B5, the binding result in experiment [1] is on record as “no binding”; in the experiment with NANP-peptide, “binds”.

B6: MGG4 (antibody, V domains shown)
VH: QVQLVESGGGVVQPGRSLRLSCAASGFRFSDYGMHWVRQAPGKGLEWVALIWYDGSNESYLDSVKGRFTISRDNSKNTLYLQMNNLRTEDTAVYYCAKLLVGITTDVFDVWGQGTVVTVSS
VL: DIVMTQSPDSLAVSLGERATINCRSSQSVLSSSNNKNYLAWYQHKPRQPPKLLIYWASTRESGVPDRFSGSGSGTDFTLTISSLQAEDVAVYYCQQYYTASPFFGGGTKVEIK
Turning to B6, the binding result in experiment [1] was “no binding”. This molecule returned an EC50 with NPDP-peptide of under 0.1 µg/mL.

B7: MGU11 (antibody, V domains shown)
VH: QVQLVESGGGVVQPGRSLRLSCVASGFSFSSYGMHWVRQAPGKGLEWVAVIWYDGTNKYYADSVKGRFTISRDNTKNTLYLQMNSLRADDTAMYYCANDIAGWGYDGSNAWGQGTLVTVSS
VL: LSLPVTPGQPASISCKSSQSLVYSDGNTYLNWFQQRPGQSPRRLIYKVSNRDSGVPDRFSGSGSGTDFTLKISRVEAEDVGVYYCMQGTVGFTFGPGTTVDIK
Consider B7, for which the binding result in experiment [1] is on record as “no binding”.

B8: MGU1 (antibody, V domains shown)
VH: QVQLVESGGGVVQPGRSLRLSCAASGFAFSSYGMNWVRQAPGKGLEWVAVIWHDGTNKYYRDSVKGRFIISRDNAKNTLYLQMDSLSAEDTAMYYCAIWYLDSPDHGFDIWGRGTMVTVSS
VL: QLVLTQSPSASASLGVSVTLTCTLNNGHSSNAIAWHQQQPGKGPRYLMKVNSDGSHNKGAAVPDRFSGSSSGTERHLTISSLQSDDEADYYCQAWDSGIWVFGGGTKLTVL
As for B8, the binding result in experiment [1] was “no binding”; with NANP-peptide, “binds”; with NPDP-peptide, “binds”; with 22-110-peptide, “binds”.

B9: MGU10 (antibody, V domains shown)
VH: QVQLVESGGGVVQPGRSLRLSCAASGFAFSNYGMNWVRQAPGKGLEWVAVIWHDGSLKYYTQSVKGRFTISRDNAKNTLFLQMDSLSADDTAMYYCTVWYLETPDDGFDIWGRGTMVTVSS
VL: QLVLTQPPSASASLGVSVTLTCTLSHGHTSKAIAWHQQQPGKGPRYLMKVNSDGSHTKGAAVPDRFSGSTSGAERHFTISNLQSDDEADYYCQAWDSGIWVFGGGTKLTVL
Turning to B9, in experiment [1], the binding result was “no binding”.

B10: MGU5 (antibody, V domains shown)
VH: QVQLVESGGGVVQPGRSLRLSCAASGFSFSSYGMHWVRQAPGKGLDWVALIWHDGTNKFYTDSVKGRFTISRDNSKDTLFLQMNSLRVEDTAVYYCTKRAGWGDALDIWGQGTMVTVSS
VL: DIQMTQSPSSLSASVGDRVTITCQASQDISNYLNWYQQKPGKAPKLLIYDASNLETGVPSRFSGSGSATDFTLTISSLQSEDIATYYCQQQRIFGGGTKVEIK
Consider B10, for which the binding result in experiment [1] is recorded as “no binding”. The molecule further showed an EC50 in the experiment with NPDP-peptide of under 0.1 µg/mL.

B11: MGU8 (antibody, V domains shown)
VH: QVQLVESGGGVVQPGRSLRLSCAAGGFTFSNYGMHWVRQAPGKGLEWVALIWHDGTNKFYADSVKGRFTISRDNSKNTLSLQMDSLTTEDTAIYFCTKRGGWGDGSDIWGQGTMVTVSS
VL: DIQMTQSPSSLSASVGDRVTITCQASQDVDNYLNWYQHKPGKAPKLLIYDASNLATGVPSRFSGSGSSTDFTLTISSLQSDDFATYYCQQQRIFGGGTRVEIK
B11: the binding result in experiment [1] is “no binding”. This molecule yielded an EC50 with NPDP-peptide of under 0.1 µg/mL.

B12: MGU3 (antibody, V domains shown)
VH: EVLLVESGGGLVQPGGSLRLSCAASGFTFSDYNMHWVRQAPGKGLEWLSYISHSSSTTYYADSVRGRFTISRDNAKNSLYLQMNSLRAEDTAVYYCARLRPLSYSGRYRDYWGQGTLVTVSS
VL: DIQMTQSPSSLSASVGDRVTITCQASQDVSNYVNWYQQKPGKAPKVLIYDASTLQTGVPSRFSGSGSGTDFTFSISSLQPEDIATYYCQQYDSLPLTFGGGTKVEIK
As to B12, the binding result in experiment [2] was “binds”; with NANP-peptide, “no binding”; in the experiment with NPDP-peptide, “no binding”; with 22-110-peptide, “no binding”.

B13: MGG3 (antibody, V domains shown)
VH: QEQLVESGGGVVQPGKSLRLSCAASGFTFSTFGMHWVRQAPGKGLEWVAVIWYDGSSKYHADSVKGRFTISRDNSKSTLYLQMNSLRAEDTAMYYCVKVGANWGWRYFDLWGRGTLVTVSS
VL: DIVMTQTPLSLSVTPGQPASISCKSSQSLLHSDGNTYLSWYLQKPGQSPQLLIYEVSSRFSGVPDRFSGSGSGTDFTLKISRVEADDVGVYYCMQGIHSWTFGQGTKVEIK
Consider B13, for which the binding result in experiment [1] is given as “no binding”. This molecule displayed an EC50 with NPDP-peptide of under 0.1 µg/mL.

B14: MGG2 (antibody, V domains shown)
VH: EVQLVESGGGLVQPGGSLRLSCAASGFTLNNYWMHWVRQAPGKGLVWVAHINIDGSTTTYADSVKGRFTISRDNAKNTLYLQMNSLRAEDTAVYYCAKGSIKAGGFWSGYSNWFDPWGQGTLVTVSS
VL: QAVVTQEPSLTVSPGGTVTLTCDSDPGPVTSGHYPYWFQQKPGQVPRTLIYDTSNKHSWTPARFSGSLLGGKAALTLSGAQPEDEADYYCLLSYGGAPVFGGGTKLTVL
As for B14, the binding result was “no binding” in experiment [1], “binds” in the experiment with NANP-peptide, “binds” in the experiment with NPDP-peptide and “binds” in the experiment with 22-110-peptide.

B15: MGH1 (antibody, V domains shown)
VH: QVQLVQSGAEVKKPGASVRVSCKTSGYTFTDYYVHWVRQAPGHGLECMGWINPYIGVSKYAQKFQGRVTLTRDTSISTAYMEISRLTSDDTAVYYCAACSNVGCYVYWGQGSLVTVSS
VL: DVVMTQSPLSLPVTLGQPASISCRSSQSLVYSDGNTYLNWFQQRPGQSPRRLIYKVSNRDSGVPDRFSGSGSGTDFTLKISRVEAEDVAIYFCMQGTHWPDTFGQGTKLEIK
Consider B15, for which the binding result in experiment [1] is “no binding”; in the experiment with NANP-peptide, “binds”; with NPDP-peptide, “binds”; in the experiment with 22-110-peptide, “binds”.

B16: MGV3 (antibody, V domains shown)
VH: EVQVVESGGDLVQPGGSLRLSCAVYGFTVSDSYMSWVRQAPGKGLEWVSVIYSGSSTYYIDSVKGRFTISRDRSKNTLYLQMNTLRVEDTALYYCARGPNDYRNRKYYYYMDVWGKGTAVTVSS
VL: EIVLTQSPDTLSLSAGERVTLSCRASQSVDSPYLAWYQQRPGQTPRLLIFGASIRATDIPDRFSGGGSGTDFTLTISRLEPEDSGVYYCHQYGNAPYIFGQGTKLEIK
notes: also called biotin-labeled MGV3; biotinylated MGV3
Turning to B16, the binding result in experiment [1] is reported as “no binding”; with NANP-peptide, “no binding”; in the experiment with NPDP-peptide, “binds”; with 22-110-peptide, “binds”.
